Experimental data: paper PMC4306973 (Scientific Reports, 2015)
Several values for one entry are separate records, joined by “and”; a condition that tells them apart may be missing. Identical values can stand only once.

Biological target: the molecule itself
Experiment: SEC

B1: vanillin dehydrogenase from Corynebacterium glutamicum ATCC13032 (VDH_(ATCC13032)) (enzyme, UniProt Q8NMB0 1-484, looked up)
chain: MTATFAGIDATKHLIGGQWVEGNSDRISTNINPYDDSVIAESKQASIADVDAAYEAAKKAQAEWAATPAAERSAIIYRAAELLEEHREEIVEWLIKESGSTRSKANLEITLAGNITKESASFPGRVHGRISPSNTPGKENRVYRVAKGVVGVISPWNFPLNLSIRSVAPALAVGNAVVIKPASDTPVTGGVIPARIFEEAGVPAGVISTVAGAGSEIGDHFVTHAVPKLISFTGSTPVGRRVGELAINGGPMKTVALELGGNAPFVVLADADIDAAAQAAAVGAFLHQGQICMSINRVIVDAAVHDEFLEKFVEAVKNIPTGDPSAEGTLVGPVINDSQLSGLKEKIELAKKEGATVQVEGPIEGRLVHPHVFSDVTSDMEIAREEIFGPLISVLKADDEAHAAELANASDFGLSAAVWSKDIDRAAQFALQIDSGMVHINDLTVNDEPHVMFGGSKNSGLGRFNGDWAIEEFTTDRWIGIKRS
Q: For B1, which “stoichiometry N” value is on record?
A: The value was 4 and 3 and 2.
